Test results reported in US20180030118A1 (EMERGENT BIOSOLUTIONS CANADA, published 2018).
Substitutions are numbered along the chain they refer to.

T1: MARV Ravn GPe (Marburg virus, strain Ravn, UniProt Q1PDC7 19-648)
T1 construct: extracellular domain; also called Marburg GP (Ravn) ectodomain
T1 sequence: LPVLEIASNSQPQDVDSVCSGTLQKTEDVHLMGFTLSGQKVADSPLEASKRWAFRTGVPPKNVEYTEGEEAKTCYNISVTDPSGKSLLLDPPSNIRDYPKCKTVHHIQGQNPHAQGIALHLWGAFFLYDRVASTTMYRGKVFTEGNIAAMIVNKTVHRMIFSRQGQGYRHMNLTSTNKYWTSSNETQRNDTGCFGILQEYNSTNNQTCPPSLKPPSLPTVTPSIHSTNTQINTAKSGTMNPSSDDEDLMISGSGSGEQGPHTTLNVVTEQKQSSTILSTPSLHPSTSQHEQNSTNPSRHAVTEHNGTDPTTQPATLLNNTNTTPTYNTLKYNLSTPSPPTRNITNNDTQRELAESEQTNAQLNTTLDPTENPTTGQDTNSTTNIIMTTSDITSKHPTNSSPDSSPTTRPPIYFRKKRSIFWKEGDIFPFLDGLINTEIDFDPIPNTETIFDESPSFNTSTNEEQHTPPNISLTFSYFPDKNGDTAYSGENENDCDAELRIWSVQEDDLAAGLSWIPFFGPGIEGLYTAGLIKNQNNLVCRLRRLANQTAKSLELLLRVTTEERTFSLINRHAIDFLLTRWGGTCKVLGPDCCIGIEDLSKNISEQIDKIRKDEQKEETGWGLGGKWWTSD

T2: MARV Musoke GPe (Marburg virus, strain Musoke, UniProt P35253 19-648)
T2 construct: extracellular domain; also called Marburg GP (Musoke) ectodomain
T2 sequence: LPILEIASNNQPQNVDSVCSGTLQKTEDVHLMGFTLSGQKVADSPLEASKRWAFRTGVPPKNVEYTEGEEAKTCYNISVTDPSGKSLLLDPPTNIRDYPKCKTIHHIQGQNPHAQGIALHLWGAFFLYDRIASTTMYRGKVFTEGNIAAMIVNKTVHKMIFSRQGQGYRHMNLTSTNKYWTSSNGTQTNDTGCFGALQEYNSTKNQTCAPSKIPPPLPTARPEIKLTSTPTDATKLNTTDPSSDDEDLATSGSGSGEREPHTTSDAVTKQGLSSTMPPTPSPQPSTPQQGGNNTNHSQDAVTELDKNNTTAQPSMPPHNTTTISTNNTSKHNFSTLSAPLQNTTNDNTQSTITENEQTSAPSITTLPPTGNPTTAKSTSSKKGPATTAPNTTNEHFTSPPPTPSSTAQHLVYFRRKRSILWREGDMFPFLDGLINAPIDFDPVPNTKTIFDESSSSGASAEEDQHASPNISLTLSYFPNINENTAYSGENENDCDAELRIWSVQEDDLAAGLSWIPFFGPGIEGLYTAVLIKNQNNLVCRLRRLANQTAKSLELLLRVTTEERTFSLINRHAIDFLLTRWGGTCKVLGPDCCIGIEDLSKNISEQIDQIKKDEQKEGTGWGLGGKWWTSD

T3: MARV Angola GPe (Marburg virus, strain Angola, UniProt Q1PD50 19-648)
T3 construct: extracellular domain; also called Marburg GP (Angola) ectodomain
T3 sequence: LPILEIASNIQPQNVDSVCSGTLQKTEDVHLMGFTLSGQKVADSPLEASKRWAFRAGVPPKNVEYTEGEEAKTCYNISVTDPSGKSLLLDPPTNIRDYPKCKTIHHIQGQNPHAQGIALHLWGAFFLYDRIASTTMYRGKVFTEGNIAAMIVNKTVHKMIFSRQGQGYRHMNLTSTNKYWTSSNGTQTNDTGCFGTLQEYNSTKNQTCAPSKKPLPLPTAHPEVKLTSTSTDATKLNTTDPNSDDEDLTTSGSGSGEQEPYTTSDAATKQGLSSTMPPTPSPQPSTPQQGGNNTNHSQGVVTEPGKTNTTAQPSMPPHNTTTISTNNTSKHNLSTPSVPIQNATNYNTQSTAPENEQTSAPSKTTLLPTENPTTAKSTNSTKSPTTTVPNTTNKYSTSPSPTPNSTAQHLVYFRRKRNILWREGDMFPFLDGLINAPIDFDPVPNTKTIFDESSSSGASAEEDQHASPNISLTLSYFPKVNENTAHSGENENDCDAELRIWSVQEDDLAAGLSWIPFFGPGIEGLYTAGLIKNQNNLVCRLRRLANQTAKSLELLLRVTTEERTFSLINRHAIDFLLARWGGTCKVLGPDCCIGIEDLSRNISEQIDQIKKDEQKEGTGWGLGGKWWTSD

B1: huCAN40G1 (antibody, V domains shown)
VH: EVQLQQSGPEVKKPGASVKVSCRTSGYTFTEYTIHWVKQAPGKGLEWIGGINPNHGGTLYNQKFKGRVTLTVDKSSSTAYMELSRLRSDDTAVYYCARFTYDYWGQGTLVTVSS
VL: DIVLTQSPASLAVSLGERATISCKASQSVDHDGDSYMNWYQQKPGQPPKLLIYATSNLESGIPARFSGSGSGTDFTLTISSLQAEDVATYYCQQSYEVPLTFGAGTKLEIK
notes: also called humanized CAN40G1
B2: muCAN40G1 (antibody, V domains shown)
VH: EVQLQQSGPELVKPGASVKISCRTSGYTFTEYTIHWVKQSRGKSLEWIGGINPNHGGTLYNQKFKVKATLTVDKSSSTAYMELRSLTSEDSAVYYCARFTYDYWGQGTTLTVSS
VL: B1 VL with E17Q, T20S, T78N, S80H, S81P, L82V, Q83E, A84E, V87A, I110L
notes: also called murine CAN40G1
B3: huCAN54G2 (antibody, V domains shown)
VH: QVQLQQSGTEVKKPGASVKVSCKASGYDFTNFWLGWIRQAPGQGLEWIGDIYPGGDNTYYNEKFKGRVTLTADKSSNTAYMELSSLRSEDTAVYFCFMILYTLDYWGQGTLVTVSS
VL: DVVMTQTPLTLPVTLGQPASISCTSSQSLLNSDGETYLNWLLQRPGQSPKRLIHLVSKLDSGVPDRFSGSGSGTDFTLKISRVEAEDVGVYYCWQGTHFPWTFGGGTKVEIK
notes: also called humanized CAN54G2
B4: muCAN30G5 (antibody, V domains shown)
VH: EVQLVESGGGLVQPKGSLKLSCAASGFAFNSYAMHWVCQAPGKGLEWVARIRIKSGNYATSYAGSVTDRFTVSRDDSQNLFYLQMNNLKTEDTAMYYCVREWEGAMDYWGQGTSVTVSS
VL: DIVLTQSPLSLPVSLGDQASISCRSSQSLVHSNGNTYLHWYLQKPGQSPNLLIYKVSNRFSGVPDRFSGSGSGTDFTLKISRVEAEDLGVYFCSQSTHVPWTFGGGTKLEIK
notes: also called murine CAN30G5
B5: huCAN30G5 (antibody, V domains shown)
VH: B4 VH with K15G, C38R, P41S, T67K, D68G, Q78K, L80T, N87S, S114L
VL: B4 VL with S14T, D17Q, Q18P, L42Q, K44R, N50R, L88V, F92Y, L109V
notes: also called humanized CAN30G5
B6: muCAN54G2 (antibody, V domains shown)
VH: QVQLQQSGTELVRPGTSVKISCKASGYDFTNFWLGWIKQRPGHGLEWIGDIYPGGDNTYYNEKFKGKVTLTADKSSNTAYMQFSSLTSEDSAVYFCFMILYTLDYWGQGTSVTVSS
VL: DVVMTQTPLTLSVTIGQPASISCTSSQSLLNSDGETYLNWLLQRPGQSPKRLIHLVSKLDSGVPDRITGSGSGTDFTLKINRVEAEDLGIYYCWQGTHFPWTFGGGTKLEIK
notes: also called murine CAN54G2

How the values were obtained:
MARV Ravn GPe = target: T1, MARV Ravn GPe; experiment: ELISA, GP coated 200 ng/well, mAb at 2 ug/mL
MARV Musoke GPe [1] = target: T2, MARV Musoke GPe; experiment: ELISA, GP coated 200 ng/well, mAb at 2 ug/mL
MARV Angola GPe [2] = target: T3, MARV Angola GPe; experiment: ELISA, GP coated 200 ng/well, mAb at 2 ug/mL
MARV Musoke GPe [3] = target: T2, MARV Musoke GPe; experiment: ELISA on coated GPe (200 ng/well)
MARV Angola GPe [4] = target: T3, MARV Angola GPe; experiment: ELISA on coated GPe (200 ng/well)

Binder | OD405 @ 30 min (MARV Ravn GPe) [OD405] | OD405 @ 30 min (MARV Musoke GPe [1]) [OD405] | OD405 @ 30 min (MARV Angola GPe [2]) [OD405] | binding result (MARV Musoke GPe [3]) | binding result (MARV Angola GPe [4])
B1 | 2.75 | 2.73 | 3.83 | – | –
B2 | 0.504 | 0.536 | 0.857 | – | –
B3 | 0.89 | 0.908 | 0.502 | – | –
B4 | 0.16 | – | – | no binding | no binding
B5 | 2.74 | – | – | no binding | no binding
B6 | 0.16 | 0.185 | 0.15 | – | –
